From publication PMC8429438

Experiments:
[1] = biological target: P301L tau repeat domain (P301L tauRD) (human); assay: MST; Cy5-labelled wild-type or mutant tau/tauRD titrated with a serial two-fold dilution of DnaJC7 or single DnaJC7 domains; Monolith NT.115; technical triplicates; fit in PALMIST with a 1:1 binding model
[2] = biological target: wild-type tau repeat domain (WT tauRD) (human); assay: as above

B1: DnaJC7 (full-length, wild type, recombinant) (natural protein)
chain: MAAAAECDVVMAATEPELLDDQEAKREAETFKEQGNAYYAKKDYNEAYNYYTKAIDMCPKNASYYGNRAATLMMLGRFREALGDAQQSVRLDDSFVRGHLREGKCHLSLGNAMAACRSFQRALELDHKNAQAQQEFKNANAVMEYEKIAETDFEKRDFRKVVFCMDRALEFAPACHRFKILKAECLAMLGRYPEAQSVASDILRMDSTNADALYVRGLCLYYEDCIEKAVQFFVQALRMAPDHEKACIACRNAKALKAKKEDGNKAFKEGNYKLAYELYTEALGIDPNNIKTNAKLYCNRGTVNSKLRKLDDAIEDCTNAVKLDDTYIKAYLRRAQCYMDTEQYEEAVRDYEKVYQTEKTKEHKQLLKNAQLELKKSKRKDYYKILGVDKNASEDEIKKAYRKRALMHHPDRHSGASAEVQKEEEKKFKEVGEAFTILSDPKKKTRYDSGQDLDEEGMNMGDFDPNNIFKAFFGGPGGFSFEASGPGNFFFQFG
Q: How did the Kd [1] turn out when B1 was run?
A: The Kd was 6.2 µM.

Q: What about the Kd [2] of the same binder?
A: Its Kd is 2.2 µM.
